In publication PMC11338831:
“And” between values parts separate entries of the source, which are not always exact repeats. Identical values can stand only once.

What was measured:
[1] = target: Solanum lycopersicum (tomato) NRC2, full-length, purified from insect cells (Solanum lycopersicum (tomato)); assay: SEC; gel filtration of purified SlNRC2 after removal of MBP; Buffer E (10 mM Tris-HCl pH 8.0, 150 mM NaCl, 1 mM dithiothreitol); Superdex 200 Increase 10/300 GL
[2] = target: Solanum lycopersicum (tomato) NRC2, full-length, purified from insect cells (Solanum lycopersicum (tomato)); assay: cryo-EM structure; apparently dimeric SlNRC2 specimen, 0.7 mg ml^-1; dimer at 2.84 Å and tetramer at 3.17 Å from one data set, C2 symmetry
[3] = target: SlNRC2-Twin-Strep-HA (Solanum lycopersicum (tomato)); assay: native gel or EMSA; Blue Native-PAGE (3-12% Bis-Tris) of SlNRC2-Twin-Strep-HA variants eluted from Strep-Tactin XT resin out of nrc2/3/4 N. benthamiana leaf extract; immunoblot

Substance: Solanum lycopersicum (tomato) NRC2, full-length, purified from insect cells (natural protein)
- stoichiometry N [1]: 2
- stoichiometry N [2]: 2 and 4

Substance: SlNRC2-Twin-Strep-HA (natural protein)
- stoichiometry N [3]: 2 and 4
